# Literature values, collected in publication PMC5956149.
# pKd: −log10 of the molar value.
# Target: CheA (Escherichia coli) (UniProt P07363)
# Conditions: cited from earlier work
substance,measurement,value
CheA (from UniProt P07363),pKd,6.40
